How the values were obtained:
[1] = molecular target: T1, human tenascin-C (human, UniProt P24821 23-2201, limits assumed); assay: BIAcore
T1 construct: Extracellular matrix protein; also called SK-MEL-28 purified tenascin

[2] = molecular target: T1, human tenascin-C; assay: ELISA, optimal antigen concentration (FIG. 6 panel A)
[3] = molecular target: T1, human tenascin-C; assay: BIAcore, comparison with BC4
[4] = molecular target: T2, A1-4D fragment (human, UniProt P24821); assay: Western blot
T2 construct: recombinant antigenic fragment; Lane B of the Western blots; also called A-D fragment
T2 sequence (antigen fragment, looked up): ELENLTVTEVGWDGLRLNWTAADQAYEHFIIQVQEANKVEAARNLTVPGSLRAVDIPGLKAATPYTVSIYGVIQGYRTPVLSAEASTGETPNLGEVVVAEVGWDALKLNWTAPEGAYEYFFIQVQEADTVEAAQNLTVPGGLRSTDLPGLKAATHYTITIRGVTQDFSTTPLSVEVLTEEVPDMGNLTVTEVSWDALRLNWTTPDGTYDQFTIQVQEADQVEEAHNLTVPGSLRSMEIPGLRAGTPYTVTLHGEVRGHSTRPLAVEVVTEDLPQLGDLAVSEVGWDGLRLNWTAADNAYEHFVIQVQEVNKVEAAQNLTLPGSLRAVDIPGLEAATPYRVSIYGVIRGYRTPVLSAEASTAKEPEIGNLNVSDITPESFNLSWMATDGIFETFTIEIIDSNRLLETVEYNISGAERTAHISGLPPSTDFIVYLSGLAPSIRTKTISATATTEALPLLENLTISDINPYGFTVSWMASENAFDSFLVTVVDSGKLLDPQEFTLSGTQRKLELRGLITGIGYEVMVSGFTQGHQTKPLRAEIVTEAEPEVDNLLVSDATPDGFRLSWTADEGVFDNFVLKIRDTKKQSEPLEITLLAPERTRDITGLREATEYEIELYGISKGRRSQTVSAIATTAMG

[5] = molecular target: T1, human tenascin-C; assay: BIAcore; remark: listed apart in the source

T1 sequence (P24821 23-2201 limits assumed): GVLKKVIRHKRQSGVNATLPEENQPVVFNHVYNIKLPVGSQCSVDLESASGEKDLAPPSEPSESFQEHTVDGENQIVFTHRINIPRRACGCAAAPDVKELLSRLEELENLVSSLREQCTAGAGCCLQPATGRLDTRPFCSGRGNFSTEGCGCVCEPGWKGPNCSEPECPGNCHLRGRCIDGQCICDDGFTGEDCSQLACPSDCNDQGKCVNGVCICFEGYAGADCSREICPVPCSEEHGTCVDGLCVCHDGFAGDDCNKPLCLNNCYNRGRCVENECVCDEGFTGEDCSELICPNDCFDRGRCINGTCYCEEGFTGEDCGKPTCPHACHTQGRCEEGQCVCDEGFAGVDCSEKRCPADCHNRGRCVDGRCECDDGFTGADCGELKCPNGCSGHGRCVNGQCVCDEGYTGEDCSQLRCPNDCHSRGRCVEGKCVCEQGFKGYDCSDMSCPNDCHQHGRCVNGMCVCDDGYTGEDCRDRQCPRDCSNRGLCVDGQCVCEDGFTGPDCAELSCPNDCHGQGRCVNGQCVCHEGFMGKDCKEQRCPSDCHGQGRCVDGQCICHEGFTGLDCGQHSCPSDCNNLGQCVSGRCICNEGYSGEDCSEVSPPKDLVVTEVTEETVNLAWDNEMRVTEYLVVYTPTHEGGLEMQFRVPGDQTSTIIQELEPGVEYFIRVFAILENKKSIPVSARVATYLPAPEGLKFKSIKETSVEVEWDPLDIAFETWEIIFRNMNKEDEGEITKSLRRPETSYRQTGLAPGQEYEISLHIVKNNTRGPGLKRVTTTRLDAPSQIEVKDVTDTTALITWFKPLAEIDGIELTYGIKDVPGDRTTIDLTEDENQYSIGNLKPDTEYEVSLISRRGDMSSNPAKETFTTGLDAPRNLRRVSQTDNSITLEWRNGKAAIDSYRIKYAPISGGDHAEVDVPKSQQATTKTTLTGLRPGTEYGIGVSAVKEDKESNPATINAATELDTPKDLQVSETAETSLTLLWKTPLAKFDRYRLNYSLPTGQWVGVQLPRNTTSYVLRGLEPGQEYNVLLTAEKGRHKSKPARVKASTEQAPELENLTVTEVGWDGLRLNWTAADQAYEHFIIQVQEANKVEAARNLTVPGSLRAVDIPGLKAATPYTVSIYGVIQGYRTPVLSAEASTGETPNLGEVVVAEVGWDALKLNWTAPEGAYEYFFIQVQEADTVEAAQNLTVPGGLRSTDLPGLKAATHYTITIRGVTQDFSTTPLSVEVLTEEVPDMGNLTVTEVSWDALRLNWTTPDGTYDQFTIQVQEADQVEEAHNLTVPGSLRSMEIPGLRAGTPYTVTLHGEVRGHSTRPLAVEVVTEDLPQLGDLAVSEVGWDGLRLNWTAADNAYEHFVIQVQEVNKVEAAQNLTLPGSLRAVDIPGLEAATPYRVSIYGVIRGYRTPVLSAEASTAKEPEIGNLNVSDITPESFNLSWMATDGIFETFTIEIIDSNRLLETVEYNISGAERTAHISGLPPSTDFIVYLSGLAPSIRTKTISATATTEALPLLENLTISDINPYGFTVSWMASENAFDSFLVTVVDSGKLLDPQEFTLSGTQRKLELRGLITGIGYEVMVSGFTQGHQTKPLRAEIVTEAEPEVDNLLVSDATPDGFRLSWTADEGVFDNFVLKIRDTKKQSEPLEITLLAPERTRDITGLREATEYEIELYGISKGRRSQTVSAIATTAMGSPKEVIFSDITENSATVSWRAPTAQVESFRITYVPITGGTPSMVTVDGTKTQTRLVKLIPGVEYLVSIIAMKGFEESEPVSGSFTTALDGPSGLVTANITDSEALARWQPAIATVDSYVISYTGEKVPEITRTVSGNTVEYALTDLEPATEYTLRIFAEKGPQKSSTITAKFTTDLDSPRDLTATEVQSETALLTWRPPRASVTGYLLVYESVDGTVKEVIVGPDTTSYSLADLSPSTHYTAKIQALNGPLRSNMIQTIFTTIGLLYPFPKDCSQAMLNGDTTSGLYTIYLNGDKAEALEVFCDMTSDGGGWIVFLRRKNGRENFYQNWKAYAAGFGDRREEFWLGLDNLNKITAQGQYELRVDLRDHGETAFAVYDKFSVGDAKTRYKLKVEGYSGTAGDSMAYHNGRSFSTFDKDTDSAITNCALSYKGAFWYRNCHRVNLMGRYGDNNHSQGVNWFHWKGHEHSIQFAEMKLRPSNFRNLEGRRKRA

B1: ST2146 anti-human tenascin monoclonal antibody (antibody, V domains shown)
VH: KVKLQQSGPELVKPGASVKVSCKASGYAFTSYNMYWVKQSHGKSLEWIGYIDPYNGVTSYNQKFKGKATLTVDKSSSTAYMHLNSLTSEDSAVYYCARGGGSIYYAMDYWGQGTTVTVSS
VL: DIVMTQAAPSVPVTPGESVSISCRSSKSLLHSNGNTYLYWFLQRPGQSPQLLIYRMSNLASGVPDRFSGSGSGTAFTLRISRVEAEDVGVYYCMQHLEYPLTFGAGTKLELKR
notes: Mouse immunoglobulin of IgG2b/k isotype from hybridoma cST2146; Heavy chain is heterogeneously O-glycosylated
- koff [1]: 0.00041 s⁻¹
- kon [1]: 300000 M⁻¹ s⁻¹
- fold less antibody to obtain 1.0 OD than BC4 [2]: ~100 fold
- fold less antibody to obtain 1.0 OD than the fully reactive peak 3 of BC4 [2]: ~20 fold
- fold affinity against BC4 [3]: ~3 fold
- binding result [4]: no binding
- Kd [5]: 1.4 nM
